Laboratory results reported in PMC6860931, “Role of the malic enzyme in metabolism of the halotolerant methanotroph Methylotuvimicrobium alcaliphilum 20Z” (PLoS ONE, 2019).

How the values were obtained:
purified protein [1] = substrate: O=C(O)C[C@H](O)C(=O)O; assay: purified protein; conditions: NAD+ as co-substrate, assay mixture 0.3 mM NAD+, 2.5 mM MgCl2, 50 mM Tris-HCl, pH 9.0, 30°C
purified protein [2] = substrate: NC(=O)c1ccc[n+]([C@@H]2O[C@H](COP(=O)(O)OP(=O)(O)OC[C@H]3O[C@@H](n4cnc5c(N)ncnc54)[C@H](O)[C@@H]3O)[C@@H](O)[C@H]2O)c1; assay: purified protein; type: biochemical, Methylotuvimicrobium alcaliphilum; conditions: malate as co-substrate, assay mixture 10 mM malate, 2.5 mM MgCl2, 50 mM Tris-HCl, pH 9.0, 30°C, varied: cofactor

B1: Mae (malic enzyme from Mtm. alcaliphilum 20Z) (Methylotuvimicrobium alcaliphilum 20Z) (protein)
chain: MTAMSKTPLYIPYAGPALLEMPLLNKGCAFSKEERQTFNLTGLLPPRYETIEEQVQRAYLQYSSFRNAINKHIYLRSIQDNNETLFYRLLQDHLPEMLPIIYTPTVGDACEQFSDIYRSSRGLFISYVDRQQIDDILRNTTKRNVKIIVVTDGERVLGLGDQGIGGMGISIGKLSLYTACGGISPAYTLPVVLDVGTNNEKLLQDPMYMGERHRRIPQAEYDAFIDFFLQAVKRRWPDVIVQFEDFAQPNAMPILQRYRDQLCCFNDDIQGTAAVTVGTLLAACRVKNRKLSEQRVVFVGAGSAGCGIAEQVIAQMRTEGLSDREARHRVYMVDRFGLLTESMTGLRDFQQKLVQVSNRLEDWSIESDYPSLLEVIQYAKPTVLIGVSGQHGIFTETVIRTMTQGCDWPIIFPLSNPPRQVEATPEQIIEWTEGRVLLAAGSPFPPVEYGGKRYDVTQCNNSYIFPGIGLGVIAVQARRISDEMLIAASETLAAASPLANTGQGELLPPLTELPELSKRIAFAVGKVALKQNLALEISDEQLLKSIEENFWQPVYRHYKRVCF
notes: full-length, 1689 bp gene, pET22b(+) NdeI/XhoI, His6-tagged, E. coli BL21 (DE3), Ni-NTA
Purified protein [1]
  Km: 5500 ± 800 µM
Purified protein [2]
  Km: 57 ± 5 µM
